Our source for the pERK functional assay, fold increase of pERK and pERK functional assay, fold increase in pERK values is US20260201005A1.

Experiment [1] deals with KLB (β-klotho) on KLB only expressing cells (UniProt Q86Z14). In words: cell-based or functional assay.
In experiment [2] the target is KLB/FGFR4 on KLB/FGFR4 expressing cells (UniProt Q86Z14). The experiment is described as follows: cell-based or functional assay.
Sequence of KLB/FGFR4 on KLB/FGFR4 expressing cells (Q86Z14 whole entry, chain 1 of 2): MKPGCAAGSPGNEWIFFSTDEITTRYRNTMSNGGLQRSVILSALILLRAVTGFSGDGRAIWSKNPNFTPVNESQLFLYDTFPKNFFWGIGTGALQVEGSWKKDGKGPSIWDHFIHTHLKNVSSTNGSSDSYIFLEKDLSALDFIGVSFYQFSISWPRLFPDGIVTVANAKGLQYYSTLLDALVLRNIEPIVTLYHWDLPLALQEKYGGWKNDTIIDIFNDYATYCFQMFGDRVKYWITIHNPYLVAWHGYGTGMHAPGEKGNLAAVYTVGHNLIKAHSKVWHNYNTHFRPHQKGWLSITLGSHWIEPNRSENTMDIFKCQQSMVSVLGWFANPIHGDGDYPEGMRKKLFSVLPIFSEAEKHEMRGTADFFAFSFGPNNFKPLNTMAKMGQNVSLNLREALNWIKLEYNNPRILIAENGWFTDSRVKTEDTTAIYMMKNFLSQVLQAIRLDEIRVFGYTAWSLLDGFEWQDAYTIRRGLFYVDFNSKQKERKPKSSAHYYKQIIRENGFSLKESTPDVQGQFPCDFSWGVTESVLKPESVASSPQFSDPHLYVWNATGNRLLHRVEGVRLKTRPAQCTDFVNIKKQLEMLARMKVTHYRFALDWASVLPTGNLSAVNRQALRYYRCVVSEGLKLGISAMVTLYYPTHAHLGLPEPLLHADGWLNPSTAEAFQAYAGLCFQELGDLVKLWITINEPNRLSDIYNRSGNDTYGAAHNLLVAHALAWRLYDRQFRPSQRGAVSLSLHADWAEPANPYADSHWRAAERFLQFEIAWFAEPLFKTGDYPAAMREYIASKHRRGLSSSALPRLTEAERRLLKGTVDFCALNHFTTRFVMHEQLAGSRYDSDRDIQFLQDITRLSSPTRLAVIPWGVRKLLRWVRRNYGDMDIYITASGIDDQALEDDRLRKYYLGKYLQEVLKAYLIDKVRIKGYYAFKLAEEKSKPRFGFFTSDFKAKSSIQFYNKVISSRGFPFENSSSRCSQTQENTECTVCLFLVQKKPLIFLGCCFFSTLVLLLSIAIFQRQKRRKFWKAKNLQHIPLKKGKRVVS
Sequence of KLB/FGFR4 on KLB/FGFR4 expressing cells (P22455 22-802 limits assumed, chain 2 of 2, further chain): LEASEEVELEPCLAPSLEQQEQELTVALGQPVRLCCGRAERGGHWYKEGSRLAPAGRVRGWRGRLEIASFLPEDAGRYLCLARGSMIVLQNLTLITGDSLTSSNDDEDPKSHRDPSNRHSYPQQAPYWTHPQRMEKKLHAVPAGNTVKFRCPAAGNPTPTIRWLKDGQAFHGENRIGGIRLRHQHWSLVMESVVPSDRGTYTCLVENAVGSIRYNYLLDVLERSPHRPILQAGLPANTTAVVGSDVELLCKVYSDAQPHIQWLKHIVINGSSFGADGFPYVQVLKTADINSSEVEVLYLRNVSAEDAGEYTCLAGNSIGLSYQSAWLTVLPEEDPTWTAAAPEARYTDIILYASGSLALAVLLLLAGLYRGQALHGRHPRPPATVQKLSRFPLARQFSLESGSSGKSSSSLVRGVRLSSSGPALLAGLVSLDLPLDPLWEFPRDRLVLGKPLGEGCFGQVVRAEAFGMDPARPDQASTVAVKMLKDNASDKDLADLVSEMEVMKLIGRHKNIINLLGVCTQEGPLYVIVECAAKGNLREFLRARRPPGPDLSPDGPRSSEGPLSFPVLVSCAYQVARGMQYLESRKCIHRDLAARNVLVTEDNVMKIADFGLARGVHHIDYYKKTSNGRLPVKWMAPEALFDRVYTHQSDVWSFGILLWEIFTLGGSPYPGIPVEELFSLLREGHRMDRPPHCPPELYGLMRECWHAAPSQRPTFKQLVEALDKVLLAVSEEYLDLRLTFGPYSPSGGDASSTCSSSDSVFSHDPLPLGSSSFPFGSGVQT

Sequence of KLB (β-klotho) on KLB only expressing cells (Q86Z14 whole entry): as the sequence (Q86Z14 whole entry, chain 1 of 2) above

For “FGF-19 (from UniProt O95750 25-216) (ligand)”, the pERK functional assay, fold increase of pERK at 3000 nM in experiment [1] was 2 fold.

For “FGF-21 (native / wild type human Fibroblast Growth Factor-21) (from UniProt Q9NSA1 29-209) (ligand)”, the pERK functional assay, fold increase of pERK at 3000 nM in experiment [1] was determined as 2 fold. The pERK functional assay, fold increase in pERK at 3000 nM in experiment [2] was under 2 fold. “Mutant FGF21-GalNAc-SA-PEG-20 kDa (BIO89-100) (from UniProt Q9NSA1 29-209) (ligand)” yielded a pERK functional assay, fold increase in pERK at 3000 nM in experiment [2] of under 2 fold.
